For assay [1], the target named is T1, soluble GPC3 core polypeptide (human, UniProt P51654 25-563).
T1 construct: also called soluble GPC3 core protein; soluble glypican-3 core
Description: competitive ELISA on plate-immobilized soluble GPC3 core polypeptide; competitor: biotinylated H0L0 antibody at 0.3 µg/mL. On the procedure:
100 μl of the polypeptide solution was added to each well of a 96-well plate. […] After 200 μl of blocking buffer was added, the plate was blocked at 4° C. overnight or longer. […] The plate was incubated at room temperature for one hour, and then washed five times with washing buffer using SkanWasher 400 (Molecular Devices). Goat anti-streptavidin alkaline phosphatase (Zymed) was 20,000-times diluted with substrate buffer and added to the plate at 100 μl/well. The plate was incubated at room temperature for one hour, and then washed five times with washing buffer using SkanWasher 400. The concentration of phosphatase substrate (Sigma) was adjusted to 1 mg/ml using the substrate buffer, and the solution was added to the plate at 100 μl/well. The plate was incubated for one hour.
Background: In an ELISA, binding on a coated surface is turned into a signal by an enzyme label.

Assay [2] concerns the target T1, soluble GPC3 core polypeptide. Description: competitive ELISA on plate-immobilized soluble GPC3 core polypeptide; competitor: biotinylated GPC3-H2L2 antibody at 0.3 µg/mL. On the procedure: The binding activities of prepared antibodies were determined by competitive ELISA. […] The plates were incubated at 4° C. for 30 minutes or more for blocking. […] The plates were incubated at room temperature for one hour, and then washed five times with washing buffer using SkanWasher 400 (Molecular Devices). 100 μl of goat anti streptavidin alkaline phosphatase (Zymed) 20,000-times diluted with substrate buffer was added to each well. The plates were incubated at room temperature for one hour, and then washed five times with washing buffer using SkanWasher 400. Phosphatase Substrate (Sigma) was prepared at 1 mg/ml using substrate buffer, and added to each well (100 μl). The plates were incubated for one hour.

Assay [3] deals with T2, SR344 (N-terminal 1st to 344th amino acids of soluble human IL-6R) (human, UniProt P08887 20-344, limits assumed).
T2 sequence (looked up): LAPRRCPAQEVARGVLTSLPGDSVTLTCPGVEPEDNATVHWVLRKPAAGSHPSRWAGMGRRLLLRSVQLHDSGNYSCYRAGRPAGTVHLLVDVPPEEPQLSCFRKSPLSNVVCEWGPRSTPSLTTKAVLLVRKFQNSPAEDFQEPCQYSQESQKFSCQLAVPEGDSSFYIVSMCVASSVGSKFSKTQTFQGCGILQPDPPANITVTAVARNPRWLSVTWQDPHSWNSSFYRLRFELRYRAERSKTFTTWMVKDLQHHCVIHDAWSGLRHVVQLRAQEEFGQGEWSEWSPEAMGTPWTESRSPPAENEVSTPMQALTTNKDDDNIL
Description: cell-based or functional assay.

Assay [4] deals with T3, recombinant human IL-6R sR (R&D systems) (human, UniProt P08887 20-358).
T3 construct: Bought soluble receptor; also called rhIL-6sR; rhIL-s6R
T3 sequence (looked up): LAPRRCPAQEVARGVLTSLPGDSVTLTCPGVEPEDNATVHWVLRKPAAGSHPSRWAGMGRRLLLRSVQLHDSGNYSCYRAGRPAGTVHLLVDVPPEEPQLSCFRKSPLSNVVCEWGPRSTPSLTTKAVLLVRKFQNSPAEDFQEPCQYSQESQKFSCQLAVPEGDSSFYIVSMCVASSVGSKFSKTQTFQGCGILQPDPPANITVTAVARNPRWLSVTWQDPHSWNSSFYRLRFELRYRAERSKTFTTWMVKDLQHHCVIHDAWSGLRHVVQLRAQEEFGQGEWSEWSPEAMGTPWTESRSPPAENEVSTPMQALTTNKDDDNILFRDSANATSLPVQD
Description: SPR (Biacore T100), antibody captured on Protein A, rhIL-6sR as analyte, 25 C. Here is the method:
The antigen-antibody interaction was measured by immobilizing 1,800 to 2,600 RU (resonance units) of rec-Protein A (Zymed) (hereinafter “Protein A”) onto a sensor chip, binding various antibodies onto the chip, and then flowing the antigen over the chip as an analyte. Various concentrations of recombinant human IL-6R sR (R&D systems) (hereinafter “rhIL-6sR”) were used as the antigen. All measurements were carried out at 25° C. The kinetic parameters, association rate constant kₐ (1/Ms) and dissociation rate constant kd (1/s) were calculated from the sensorgrams obtained by measurement. Then, KD (M) was determined based on the rate constants. The respective parameters were determined using Biacore T100 Evaluation Software (Biacore).
For orientation: Surface plasmon resonance follows binding to a sensor surface in real time, without labels.

Assay [5] addresses T4, hFcγRIIIaV-His6 (human-derived Fcγ receptor IIIa, Val) (human, UniProt P08637 17-208, limits assumed).
T4 construct: also called FcγRIIIa (Val); not shown: His6 tag
Description: SPR (Biacore T100), hFcγRIIIaV-His6 immobilized on CM5, antibody as analyte at 250 µg/ml. On the procedure: The FcγRIIIa binding was assessed by the procedure described below. […] The amounts of bound antibody were compared. […] FcγRIIIa was immobilized onto the sensor chip CM5 (Biacore) by the amine coupling method. […] The running buffer used was HBS-EP+, and the flow rate was 5 μl/min. The sample concentration was adjusted to 250 μg/ml using HBS-EP+. The analysis included two steps: two minutes of association phase where 10 μl of an antibody solution was injected and the subsequent four minutes of dissociation phase where the injection was switched with HBS-EP+. After the dissociation phase, the sensor chip was regenerated by injecting 20 μl of 5 mM hydrochloric acid. The association, dissociation, and regeneration constitute one analysis cycle. Various antibody solutions were injected to obtain sensorgrams. […] 1999 August; 29(8):2613-24.

The target of assay [6] is T5, human-derived Fcγ receptor IIb (Recombinant Human FcRIIB/C, R&D systems) (human, UniProt P31994 46-217, limits assumed).
T5 construct: Bought recombinant protein, construct not described; also called FcγRIIb
T5 sequence (looked up): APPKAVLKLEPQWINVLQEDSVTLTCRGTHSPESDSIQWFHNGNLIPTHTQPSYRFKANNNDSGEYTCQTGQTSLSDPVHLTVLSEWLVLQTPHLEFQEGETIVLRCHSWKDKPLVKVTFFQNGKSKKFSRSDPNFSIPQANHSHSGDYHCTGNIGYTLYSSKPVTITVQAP
Description: SPR (Biacore T100), FcγRIIb immobilized on CM5, antibody as analyte at 200 µg/ml, 25 C. Here is the method:
The FcγRIIb binding was assessed by the procedure described below. […] The amounts of bound antibody were compared. […] FcγRIIb was immobilized onto the sensor chip CM5 (Biacore) by the amine coupling method. The final amount of immobilized FcγRIIb was about 4,300 RU. Then, the running buffer was injected until the baseline was stabilized. The measurement was carried out after the baseline was stabilized. […] The running buffer used was HBS-EP+ (10 mM HEPES, 0.15M NaCl, 3 mM EDTA, 0.05% v/v Surfactant P20), and the flow rate was 20 μl/min. The measurement temperature was 25° C. The concentration of each IgG or modified form thereof was adjusted to 200 μg/ml. 20 μl of an analyte was injected and allowed to interact with the immobilized FcγRIIb. After interaction, the analyte was dissociated from FcγRIIb and the sensor chip was regenerated by injecting 200 μl of the running buffer. […] This series of injection was repeated twice.

T4 sequence (P08637 17-208 F176V limits assumed): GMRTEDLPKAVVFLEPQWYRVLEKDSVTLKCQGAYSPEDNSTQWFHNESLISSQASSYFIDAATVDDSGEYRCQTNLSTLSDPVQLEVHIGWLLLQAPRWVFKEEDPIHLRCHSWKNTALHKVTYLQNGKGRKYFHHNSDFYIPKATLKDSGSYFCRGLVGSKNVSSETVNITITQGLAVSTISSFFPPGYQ
T1 sequence (P51654 other isoform, or with tags, fused parts or gaps limits assumed): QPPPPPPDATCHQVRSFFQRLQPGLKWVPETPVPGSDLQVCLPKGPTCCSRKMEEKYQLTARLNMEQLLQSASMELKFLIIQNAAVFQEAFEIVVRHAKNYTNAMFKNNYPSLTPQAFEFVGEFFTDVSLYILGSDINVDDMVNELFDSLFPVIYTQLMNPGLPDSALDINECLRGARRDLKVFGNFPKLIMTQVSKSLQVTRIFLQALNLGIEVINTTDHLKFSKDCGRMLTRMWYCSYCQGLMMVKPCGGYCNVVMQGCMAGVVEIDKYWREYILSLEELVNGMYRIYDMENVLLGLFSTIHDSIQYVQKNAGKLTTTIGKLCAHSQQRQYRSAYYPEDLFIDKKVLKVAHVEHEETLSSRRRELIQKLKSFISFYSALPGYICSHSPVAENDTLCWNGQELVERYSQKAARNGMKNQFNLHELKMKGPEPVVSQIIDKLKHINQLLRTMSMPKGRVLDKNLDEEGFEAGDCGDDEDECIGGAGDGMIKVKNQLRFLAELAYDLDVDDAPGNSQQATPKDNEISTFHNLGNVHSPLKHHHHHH

B1: antibody H15L4 (antibody, V domains shown)
VH: QVQLVQSGAEVKKPGASVKVSCKASGYTFTDYEMHWIRQPPGQGLEWIGAIDPKTGDTAYSQKFKGRVTLTADKSTSTAYMELSSLTSEDTAVYYCTRFYSYTYWGQGTLVTVSS
VL: DIVMTQSPLSLPVTPGEPASISCRSSQSLVHSNRNTYLHWYQQKPGQAPRLLIYKVSNRFSGVPDRFSGSGSGTDFTLKISRVEAEDVGVYYCSQNTHVPPTFGQGTKLEIK
notes: Point mutant of the anti-glypican 3 antibody H0L0
In the case of B1, the binding result in assay [1] is on record as “binds”.

B2: GPC3_H1L1 (antibody, human IgG1, kappa, V domains shown)
VH: QVQLVQSGAEVKKPGASVKVSCKASGYTFTDYEMHWIRQPPGKGLEWIGAINPKTGDTAYSQKFKGRVTLTADKSTSTAYMELSSLTSEDTAVYYCTRFYSYTYWGRGTLVTVSS
VL: DIVMTQSPLSLPVTPGQPASISCRASRSLVHSNRNTYLHWYQQKPGQAPRLLIYKVSNRFSGVPDRFSGSGSGTDFTLKISRVEAEDVGVYYCSQNTHVPPTFGRGTKLEIKR
notes: Anti-human GPC3 antibody
Turning to B2, in assay [2], the binding result was “binds”.

B3: Hspu2.2Lspu2.2 antibody (antibody, V domains shown)
VH: QVQLVQSGAEVKKPGASVKVSCKASGYTFTDYEMHWIRQPPGKGLEWIGAINPKTGDTAYSQKFKGRVTLTADKSTSTAYMELSSLTSEDTAVYYCTRFYSYTYWGRGTLVTVSS
VL: DIVMTQSPLSLPVTPGQPASISCRASRSLVHSNRNTYLHWYQQKPGQAPRLLIYKVSNRFSGVPDRFSGSGSGTDFTLKISRVEAEDVGVYYCSQNTHVPPTFGRGTKLEIK
notes: Anti-glypican 3, raised isoelectric point; also called Hu2.2Lu2.2
B3: the binding result in assay [1] was “binds”.

B4: Hspd1.8Lspd1.6 antibody (antibody, V domains shown)
VH: QVQLVQSGAEVKKPGASVTVSCKASGYTFTDYEMHWIRQPPGEGLEWIGAIDPKTGDTAYSQSFQDRVTLTADKSTSTAYMELSSLTSEDTAVYYCTRFYSYTYWGQGTLVTVSS
VL: DIVMTQSPLSLPVTPGEPASISCRASESLVHSNRNTYLHWYQQKPGQAPRLLIYKVSNRFSGVPDRFSGSGSGTDFTLTISSLQAEDVGVYYCSQNTHVPPTFGQGTKLEIK
notes: Anti-glypican 3, lowered isoelectric point; also called Hd1.8Ld1.6
B4: in assay [1], the binding result is “binds”.

B5: RD-6 (antibody, V domains shown)
VH: QVQLQESGPGLVRPSQTLSLTCTVSGYSITSDHAWSWVRQPPGRGLEWIGYISYSGITTYNPSLKSRVTMLRDTSKNQFSLRLSSVTAADTAVYYCARLLARATAMDYWGQGSLVTVSS
VL: DIQMTQSPSSLSASVGDRVTITCRASQDISSYLNWYQQKPGKAPKLLIYYTSRLHSGVPSRFSGSGSGTDFTFTISSLQPEDIATYYCQQGNTLPYTFGQGTKVEIK
notes: VH assembled from the FR and CDR entries of humanized PM-1
What is called Kd is the free concentration of one partner at which half of the binding sites on the other are occupied at equilibrium, for simple one-to-one binding. As a reminder, the koff is the rate constant with which the complex falls apart. As usually defined, the kon is the second-order rate constant of association. With B5, the “BaF3/gp130 neutralizing activity, 100% inhibitory concentration against WT” value in assay [3] was roughly 50 fold. For the same molecule, in assay [4], the Kd came to 0.012 nM, the “fold higher affinity than WT” value is roughly 50 fold, the koff amounted to 2.8e-05 s⁻¹ and the on-rate (kon) is 2.3e+06 M⁻¹ s⁻¹.

B6: WT-M17ΔGK (antibody, human IgG1, kappa)
heavy: QVQLQESGPGLVRPSQTLSLTCTVSGYSITSDHAWSWVRQPPGRGLEWIGYISYSGITTYNPSLKSRVTMLRDTSKNQFSLRLSSVTAADTAVYYCARSLARTTAMDYWGQGSLVTVSSASTKGPSVFPLAPSSKSTSGGTAALGCLVKDYFPEPVTVSWNSGALTSGVHTFPAVLQSSGLYSLSSVVTVPSSSLGTQTYICNVNHKPSNTKVDKKVEPKSCDKTHTCPPCPAPPVAGPSVFLFPPKPKDTLMISRTPEVTCVVVDVSHEDPEVKFNWYVDGVEVHNAKTKPREEQYNSTYRVVSVLTVLHQDWLNGKEYKCKVSNKGLPSSIEKTISKAKGQPREPQVYTLPPSRDELTKNQVSLTCLVKGFYPSDIAVEWESNGQPENNYKTTPPVLDSDGSFFLYSKLTVDKSRWQQGNVFSCSVMHEALHNHYTQKSLSLSP
light: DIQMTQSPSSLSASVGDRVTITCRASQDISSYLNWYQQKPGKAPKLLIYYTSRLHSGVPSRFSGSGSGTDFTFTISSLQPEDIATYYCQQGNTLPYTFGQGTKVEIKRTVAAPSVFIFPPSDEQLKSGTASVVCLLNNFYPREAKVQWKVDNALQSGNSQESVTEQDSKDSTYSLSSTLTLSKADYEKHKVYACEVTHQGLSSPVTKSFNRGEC
Consider B6, for which the binding result in assay [5] and in assay [6] was “binds” throughout.

B7: WT-M11ΔGK (antibody)
heavy: QVQLQESGPGLVRPSQTLSLTCTVSGYSITSDHAWSWVRQPPGRGLEWIGYISYSGITTYNPSLKSRVTMLRDTSKNQFSLRLSSVTAADTAVYYCARSLARTTAMDYWGQGSLVTVSSASTKGPSVFPLAPSSKSTSGGTAALGCLVKDYFPEPVTVSWNSGALTSGVHTFPAVLQSSGLYSLSSVVTVPSSSLGTKTYTCNVDHKPSNTKVDKTVERKSCVECPPCPAPPVAGPSVFLFPPKPKDTLMISRTPEVTCVVVDVSQEDPEVQFNWYVDGVEVHNAKTKPREEQFNSTYRVVSVLTVLHQDWLNGKEYKCKVSNKGLPSSIEKTISKAKGQPREPQVYTLPPSQEEMTKNQVSLTCLVKGFYPSDIAVEWESNGQPENNYKTTPPVLDSDGSFFLYSKLTVDKSRWQEGNVFSCSVMHEALHNHYTQKSLSLSL
light: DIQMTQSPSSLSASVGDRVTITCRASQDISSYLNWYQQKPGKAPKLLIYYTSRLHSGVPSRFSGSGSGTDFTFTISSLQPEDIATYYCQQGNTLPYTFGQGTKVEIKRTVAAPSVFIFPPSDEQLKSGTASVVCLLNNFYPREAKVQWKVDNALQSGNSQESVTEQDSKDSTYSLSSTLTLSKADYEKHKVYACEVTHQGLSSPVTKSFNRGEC
Consider B7, for which the binding result in assay [5] and in assay [6] was “binds” each time.

B8: WT-IgG2 (antibody)
heavy: QVQLQESGPGLVRPSQTLSLTCTVSGYSITSDHAWSWVRQPPGRGLEWIGYISYSGITTYNPSLKSRVTMLRDTSKNQFSLRLSSVTAADTAVYYCARSLARTTAMDYWGQGSLVTVSSASTKGPSVFPLAPCSRSTSESTAALGCLVKDYFPEPVTVSWNSGALTSGVHTFPAVLQSSGLYSLSSVVTVPSSNFGTQTYTCNVDHKPSNTKVDKTVERKCCVECPPCPAPPVAGPSVFLFPPKPKDTLMISRTPEVTCVVVDVSHEDPEVQFNWYVDGVEVHNAKTKPREEQFNSTFRVVSVLTVVHQDWLNGKEYKCKVSNKGLPAPIEKTISKTKGQPREPQVYTLPPSREEMTKNQVSLTCLVKGFYPSDIAVEWESNGQPENNYKTTPPMLDSDGSFFLYSKLTVDKSRWQQGNVFSCSVMHEALHNHYTQKSLSLSPGK
light: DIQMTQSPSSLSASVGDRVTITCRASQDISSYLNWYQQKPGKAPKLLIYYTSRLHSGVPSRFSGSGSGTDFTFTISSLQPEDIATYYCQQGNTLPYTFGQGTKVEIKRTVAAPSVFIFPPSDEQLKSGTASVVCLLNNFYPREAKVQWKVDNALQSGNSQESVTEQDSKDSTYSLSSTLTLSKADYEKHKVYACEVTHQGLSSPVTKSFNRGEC
As to B8, the binding result in assay [5] and in assay [6] was “binds” in each case.

For the origin of these results see patent publication US20150284465A1 (Chugai, published 2015).
